Each block holds one molecule with its values, some of them ahead of it. Bridge positions count the residues as written; N and C are the ends. Square brackets hold non-standard residues; d marks the D form. 2Nal = N[C@@H](Cc1ccc2ccccc2c1)C(=O)O; S5 = C=CCCC[C@](C)(N)C(=O)O; βAla = NCCC(=O)O
Key:
[1] = target: β-catenin protein (ALPHA screening assay) (UniProt P35222); experiment: ALPHA screen: biotinylated peptide on streptavidin donor beads, β-catenin on protein A acceptor beads via anti-β-catenin antibody
[2] = target: T1, β-catenin protein (ALPHA screening assay) (UniProt P35222 1-781, limits assumed); experiment: as above
T1 sequence (looked up): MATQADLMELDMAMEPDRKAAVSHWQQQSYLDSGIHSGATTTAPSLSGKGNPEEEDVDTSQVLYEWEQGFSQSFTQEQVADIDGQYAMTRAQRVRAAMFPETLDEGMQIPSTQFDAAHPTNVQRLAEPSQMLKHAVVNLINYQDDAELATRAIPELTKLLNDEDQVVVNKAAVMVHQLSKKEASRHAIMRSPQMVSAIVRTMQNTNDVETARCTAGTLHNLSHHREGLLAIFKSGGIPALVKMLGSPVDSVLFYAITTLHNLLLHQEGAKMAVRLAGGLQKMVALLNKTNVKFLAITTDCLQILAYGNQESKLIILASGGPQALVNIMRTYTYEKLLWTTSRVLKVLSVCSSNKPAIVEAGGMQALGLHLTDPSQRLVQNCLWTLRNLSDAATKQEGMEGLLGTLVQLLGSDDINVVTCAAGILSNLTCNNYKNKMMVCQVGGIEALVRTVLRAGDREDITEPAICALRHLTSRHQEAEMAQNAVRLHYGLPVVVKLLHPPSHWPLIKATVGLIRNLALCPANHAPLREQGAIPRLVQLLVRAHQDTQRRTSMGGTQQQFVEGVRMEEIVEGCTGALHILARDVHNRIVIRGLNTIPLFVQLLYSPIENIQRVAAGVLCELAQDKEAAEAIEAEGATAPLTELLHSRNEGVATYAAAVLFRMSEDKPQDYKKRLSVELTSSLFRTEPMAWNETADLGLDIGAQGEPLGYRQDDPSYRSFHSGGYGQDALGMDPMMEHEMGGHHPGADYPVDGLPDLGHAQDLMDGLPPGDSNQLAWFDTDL

[3] = target: T2, β-catenin in cells (LEF/TCF-bla HCT-116 reporter cells; Colo320DM cells) (UniProt P35222 2-781, limits assumed); experiment: cell-based or functional assay
T2 sequence (looked up): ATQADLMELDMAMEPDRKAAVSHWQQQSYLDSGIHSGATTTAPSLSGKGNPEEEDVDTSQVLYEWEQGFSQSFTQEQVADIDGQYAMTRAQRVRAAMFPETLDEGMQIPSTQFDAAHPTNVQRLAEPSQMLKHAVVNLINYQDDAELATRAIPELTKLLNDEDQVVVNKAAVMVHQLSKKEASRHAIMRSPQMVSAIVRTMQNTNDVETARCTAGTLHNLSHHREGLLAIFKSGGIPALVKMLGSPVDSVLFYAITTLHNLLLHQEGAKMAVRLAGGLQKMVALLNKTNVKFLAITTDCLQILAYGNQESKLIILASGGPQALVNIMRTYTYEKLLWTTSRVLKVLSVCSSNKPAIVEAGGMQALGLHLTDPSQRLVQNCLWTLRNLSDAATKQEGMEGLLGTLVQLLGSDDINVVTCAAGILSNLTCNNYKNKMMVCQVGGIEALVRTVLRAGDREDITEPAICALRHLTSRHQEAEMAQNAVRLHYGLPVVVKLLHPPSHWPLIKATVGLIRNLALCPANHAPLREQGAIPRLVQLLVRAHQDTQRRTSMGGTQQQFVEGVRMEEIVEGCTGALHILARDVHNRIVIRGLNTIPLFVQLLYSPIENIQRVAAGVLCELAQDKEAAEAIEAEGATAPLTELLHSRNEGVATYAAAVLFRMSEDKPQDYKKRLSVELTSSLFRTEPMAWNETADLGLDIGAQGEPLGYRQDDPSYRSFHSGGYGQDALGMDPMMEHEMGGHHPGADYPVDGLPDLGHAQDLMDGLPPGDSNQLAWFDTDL

[4] = target: T2, β-catenin in cells (LEF/TCF-bla HCT-116 …); experiment: cell-based or functional assay; remark: listed apart in the source
[5] = target: T3, Histidine-tagged β-catenin (HTRF assay) (UniProt P35222 1-781, limits assumed); experiment: HTRF assay (Cisbio): biotin-labeled peptide, His-tagged β-catenin, Eu-labeled anti-His antibody and SA-XL665
T3 construct: also called His-tag protein; not shown: histidine tag
T3 sequence (looked up): T1 sequence (looked up)

B1: WX-020, biotinylated (ALPHA screen) (peptide)
peptide: Ac-LR[S5]IQR[S5]L-NH2
modifications: staple 3-7; also: biotinylated with a PEG linker, site not given here
notes: The general description of the ALPHA assay says that a biotinylated polypeptide is used
Kd [2]: 0.08 µM

B2: WX-020 (peptide)
peptide: Ac-LR[S5]IQR[S5]L-NH2
modifications: staple 3-7
SMILES: CC[C@H](C)[C@@H]1NC(=O)[C@@](C)(NC(=O)[C@H](CCCNC(=N)N)NC(=O)[C@H](CC(C)C)NC(C)=O)CCCC=CCCC[C@@](C)(C(=O)N[C@@H](CC(C)C)C(N)=O)NC(=O)[C@H](CCCNC(=N)N)NC(=O)[C@H](CCC(N)=O)NC1=O
IC50, CellTiterGlo cell viability assay, Colo320DM cells [3]: 12.4 µM
IC50, Wnt transcription assay (GeneBLAzer reporter, procedures of Example 4.1) [3]: 1.58 µM

B3: WX-021 (peptide)
peptide: Ac-LR[S5]IQR[S5]L[2Nal][βAla][βAla]-NH2
modifications: staple 3-7
SMILES: CC[C@H](C)[C@@H]1NC(=O)[C@@](C)(NC(=O)[C@H](CCCNC(=N)N)NC(=O)[C@H](CC(C)C)NC(C)=O)CCCC=CCCC[C@@](C)(C(=O)N[C@@H](CC(C)C)C(=O)N[C@@H](Cc2ccc3ccccc3c2)C(=O)NCCC(=O)NCCC(N)=O)NC(=O)[C@H](CCCNC(=N)N)NC(=O)[C@H](CCC(N)=O)NC1=O
IC50, GeneBLAzer beta-lactamase reporter assay, LEF/TCF-bla HCT-116 cells [3]: 0.764 µM

B4: WX-024 (peptide)
peptide: Ac-LQTLR[S5]IQR[S5]L[2Nal]-NH2
modifications: staple 6-10; also: tested as trifluoroacetic, acetate and hydrochloric salts
IC50, cell-based Wnt transcription inhibition assay, acetate salt form of WX-024 [3]: 0.292 µM
IC50, cell-based Wnt transcription inhibition assay, hydrochloric salt of WX-024 [3]: 0.313 µM
IC50, GeneBLAzer beta-lactamase reporter assay, LEF-TCF-bla HCT116 cells [4]: 0.191 µM

More lines, now with the values ahead:

Kd [1]: 0.02 µM
signal versus background ratio [1]: 180 fold
Molecule: full-length HD2 domain of human BCL9 protein (peptide)

Kd [5]: 0.00421 µM
B5: WX-024 (conjugated with biotin) (peptide)
peptide: Ac-LQTLR[S5]IQR[S5]L[2Nal]-NH2
modifications: staple 6-10; also: coupled to biotin (site not given here)
notes: also called biotinylated WX-024; BCL9 peptide labeled with biotin

— patent publication US20210292385A1 (WNTRX PHARMACEUTICALS, published 2021)
